The text below walks through data of US20090291088A1, “THERAPEUTIC COMBINATIONS OF ANTI-IGF-1R ANTIBODIES AND OTHER COMPOUNDS” (Biogen Idec MA Inc., priority 2008, published 2009).

Assay [1] deals with murine IGF-1R(1-903)-Fc (mouse; human) (UniProt Q60751). The experiment in a line: SPR, Fab over captured mIGF-1R-Fc.
For assay [2] the target is unchanged. In words: SPR, Fab over mIGF-1R-Fc captured by anti-Fc, apparent affinity.
Assay [3] has the same target. The experiment in a line: SPR.
The target in assay [4] is All other mutant IGF-1R constructs (SD001-SD019 other than SD015). In words: SPR, Fab over captured mutant receptor-Fc.
Assay [5] has as its target murine IGF-1R(1-903)-Fc (mouse; human) (UniProt Q60751). The experiment in a line: SPR, Fab over captured mIGF-1R-Fc, 3 hr dissociation.

B1: M13-C06 Fab (Fab, V domains shown)
VH: EVQLLESGGGLVQPGGSLRLSCAASGFTFSIYRMQWVRQAPGKGLEWVSGISPSGGTTWYADSVKGRFTISRDNSKNTLYLQMNSLRAEDTAVYYCARWSGGSGYAFDIWGQGTMVTVSS
VL: DIQMTQSPLSLSASVGDRVTITCQASRDIRNYLNWYQQKPGKAPKLLIYDASSLQTGVPSRFGGSGSGTDFSFTIGSLQPEDIATYYCQQFDSLPHTFGQGTKLEIK
Consider B1, for which the on-rate constant (kon) in assay [1] came to 471 M⁻¹ s⁻¹. Moreover, the Kd came out at 89.1 nM in assay [2] and 1 nM in assay [4]. Further, the fold decrease in binding against human IGF-1R Fc in assay [3] stood at 100 fold. In assay [5], this molecule came in with a koff of 4.2e-05 s⁻¹.

B2: M14-C03 Fab (Fab, V domains shown)
VH: EVQLLESGGGLVQPGGSLRLSCAASGFTFSKYMMSWVRQAPGKGLEWVSYISPSGGLTWYADSVKGRFTISRDNSKNTLYLQMNSLRAEDTAVYYCARDGARGYGMDVWGQGTTVTVSS
VL: DIQMTQSPATLSLSPGERATLSCRASQSVSSYLAWYQQKPGQAPRLLIYDASNRATGIPARFSGSGSGTDFTLTISSLEPEDFAVYYCQQRSNWPPEVTFGPGTKVDIK
Turning to B2, the Kd in assay [4] turned out to be 5 nM.
